The record followed here is US20190169246A1 (UNIVERSITY OF SOUTH FLORIDA, published 2019).

This test has as its target APC.

APC, sequence (Q14114 33-826): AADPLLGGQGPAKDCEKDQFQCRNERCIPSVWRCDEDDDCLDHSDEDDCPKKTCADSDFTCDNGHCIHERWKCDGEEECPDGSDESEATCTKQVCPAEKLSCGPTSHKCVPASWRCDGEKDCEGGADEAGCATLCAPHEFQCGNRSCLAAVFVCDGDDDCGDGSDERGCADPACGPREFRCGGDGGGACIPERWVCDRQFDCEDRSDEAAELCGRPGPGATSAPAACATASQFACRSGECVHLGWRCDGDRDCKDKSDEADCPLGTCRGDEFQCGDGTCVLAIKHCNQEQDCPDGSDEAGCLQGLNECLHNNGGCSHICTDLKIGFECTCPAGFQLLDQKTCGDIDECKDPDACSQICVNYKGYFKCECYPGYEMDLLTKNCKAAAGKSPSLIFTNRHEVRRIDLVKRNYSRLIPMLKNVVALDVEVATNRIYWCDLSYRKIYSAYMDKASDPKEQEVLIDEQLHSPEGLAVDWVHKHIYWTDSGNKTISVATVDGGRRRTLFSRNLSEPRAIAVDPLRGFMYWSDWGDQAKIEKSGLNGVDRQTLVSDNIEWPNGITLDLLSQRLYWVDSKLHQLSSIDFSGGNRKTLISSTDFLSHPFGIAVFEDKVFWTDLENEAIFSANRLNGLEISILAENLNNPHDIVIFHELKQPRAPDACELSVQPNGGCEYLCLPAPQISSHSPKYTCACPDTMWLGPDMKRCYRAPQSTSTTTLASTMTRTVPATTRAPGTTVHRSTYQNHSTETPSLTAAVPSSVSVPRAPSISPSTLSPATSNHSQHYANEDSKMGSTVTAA

B1: ApoER2 (as bound by APC) (receptor)
chain: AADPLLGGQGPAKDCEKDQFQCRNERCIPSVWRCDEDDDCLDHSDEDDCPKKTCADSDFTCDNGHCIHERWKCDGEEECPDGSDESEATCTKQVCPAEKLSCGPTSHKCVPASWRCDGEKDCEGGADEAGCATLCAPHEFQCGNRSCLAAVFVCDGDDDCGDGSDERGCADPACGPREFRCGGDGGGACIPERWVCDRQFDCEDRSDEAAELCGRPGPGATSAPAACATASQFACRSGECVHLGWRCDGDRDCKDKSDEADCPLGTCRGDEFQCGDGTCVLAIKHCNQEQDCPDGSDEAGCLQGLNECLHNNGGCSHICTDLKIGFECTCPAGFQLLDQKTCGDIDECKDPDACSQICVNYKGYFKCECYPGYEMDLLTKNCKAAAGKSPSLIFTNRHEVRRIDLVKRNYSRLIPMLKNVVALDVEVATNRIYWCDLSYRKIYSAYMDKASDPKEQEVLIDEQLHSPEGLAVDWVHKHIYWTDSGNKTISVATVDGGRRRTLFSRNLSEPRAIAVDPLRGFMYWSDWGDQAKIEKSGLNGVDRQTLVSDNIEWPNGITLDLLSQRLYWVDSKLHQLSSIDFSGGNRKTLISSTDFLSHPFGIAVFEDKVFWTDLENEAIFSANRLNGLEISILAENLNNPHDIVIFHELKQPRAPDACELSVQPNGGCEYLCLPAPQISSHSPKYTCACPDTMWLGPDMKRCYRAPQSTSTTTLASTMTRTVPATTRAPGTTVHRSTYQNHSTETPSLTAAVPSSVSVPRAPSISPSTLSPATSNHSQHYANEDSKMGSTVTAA
As a reminder, the Kd is the free concentration of one partner at which half of the binding sites on the other are occupied at equilibrium, for simple one-to-one binding. With B1, the Kd was 30 nM.
